Results: publication PMC7170241

What was measured:
[1] = molecular target: MamB_(BW-1) cytosolic C-terminal domain (CTD), residues 190-270 (Desulfamplus magnetovallimortis strain BW-1) (UniProt G8IQT4); experiment: SEC; preparative size-exclusion chromatography after Ni-NTA; HiLoad 26/60 Superdex 75; buffer E (20 mM Tris-HCl pH 8, 150 mM NaCl, 5 mM beta-mercaptoethanol)
[2] = molecular target: MamM_(BW-1) cytosolic C-terminal domain (CTD), residues 213-293 (Desulfamplus magnetovallimortis strain BW-1); experiment: as above

stoichiometry N [1] | stoichiometry N [2] | Substance
2 | – | MamB_(BW-1) cytosolic C-terminal domain (CTD), residues 190-270 (from UniProt G8IQT4 190-270) (domain or fragment)
– | 2 | MamM_(BW-1) cytosolic C-terminal domain (CTD), residues 213-293 (domain or fragment)
